Bridges are numbered along the chain shown (N, C = ends). Primed or numbered codes have the meaning given here. Where no end group is shown, it is not given here. [ ]: non-standard residue; d: D form. S5′ = (S)-2-(4'-pentenyl)alanine, olefinic stapling residue closed by ring-closing metathesis; NMeR′ = N-methylarginine (methylation site not shown in the text); 2Nal = N[C@@H](Cc1ccc2ccccc2c1)C(=O)O; pentenylAla = 2-(4'-pentenyl)alanine; NMeR = CN[C@@H](CCCNC(=N)N)C(=O)O; Ala(cPr) = N[C@@H](CC1CC1)C(=O)O; NMeT = CN[C@H](C(=O)O)[C@@H](C)O; NMeQ = CN[C@@H](CCC(N)=O)C(=O)O; dNMeQ = CN[C@H](CCC(N)=O)C(=O)O; Cha = N[C@@H](CC1CCCCC1)C(=O)O; NMeL = CN[C@@H](CC(C)C)C(=O)O; αMeL = CC(C)C[C@](C)(N)C(=O)O; Cba = N[C@@H](CC1CCC1)C(=O)O; S5 = C=CCCC[C@](C)(N)C(=O)O; Nle = CCCC[C@H](N)C(=O)O; Abu = CC[C@H](N)C(=O)O; βAla = NCCC(=O)O
T1: β-catenin (UniProt P35222 1-781, limits assumed)
T1 construct: also called beta-catenin
T1 sequence (looked up): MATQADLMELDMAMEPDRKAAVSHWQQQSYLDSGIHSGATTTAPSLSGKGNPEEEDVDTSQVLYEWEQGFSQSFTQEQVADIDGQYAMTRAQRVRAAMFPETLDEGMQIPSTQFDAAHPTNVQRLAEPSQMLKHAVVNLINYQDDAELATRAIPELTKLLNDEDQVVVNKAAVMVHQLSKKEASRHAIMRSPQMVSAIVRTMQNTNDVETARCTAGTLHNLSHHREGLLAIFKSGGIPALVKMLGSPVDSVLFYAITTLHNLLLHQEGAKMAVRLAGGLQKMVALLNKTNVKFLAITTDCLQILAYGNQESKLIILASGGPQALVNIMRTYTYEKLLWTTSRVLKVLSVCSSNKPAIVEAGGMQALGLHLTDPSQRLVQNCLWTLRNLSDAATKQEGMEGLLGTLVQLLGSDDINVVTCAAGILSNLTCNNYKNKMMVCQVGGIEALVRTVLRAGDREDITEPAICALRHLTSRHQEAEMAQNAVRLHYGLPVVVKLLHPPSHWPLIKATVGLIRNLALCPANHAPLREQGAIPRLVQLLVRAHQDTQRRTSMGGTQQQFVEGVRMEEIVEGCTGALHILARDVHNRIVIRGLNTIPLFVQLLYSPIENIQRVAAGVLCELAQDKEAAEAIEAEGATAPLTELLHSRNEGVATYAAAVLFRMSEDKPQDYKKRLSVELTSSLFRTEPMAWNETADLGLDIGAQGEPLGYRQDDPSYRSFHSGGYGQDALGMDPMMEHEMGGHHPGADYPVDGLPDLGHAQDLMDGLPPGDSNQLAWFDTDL

B1: SEQ ID NO: 127 (peptide)
peptide: Ac-LQTLR[S5]IQR[S5][Cha][2Nal]-NH2
modifications: staple 6-10
SMILES: CC[C@H](C)[C@@H]1NC(=O)[C@@](C)(NC(=O)[C@H](CCCNC(=N)N)NC(=O)[C@H](CC(C)C)NC(=O)[C@@H](NC(=O)[C@H](CCC(N)=O)NC(=O)[C@H](CC(C)C)NC(C)=O)[C@@H](C)O)CCCC=CCCC[C@@](C)(C(=O)N[C@@H](CC2CCCCC2)C(=O)N[C@@H](Cc2ccc3ccccc3c2)C(N)=O)NC(=O)[C@H](CCCNC(=N)N)NC(=O)[C@H](CCC(N)=O)NC1=O
B2: SEQ ID NO: 119 (peptide)
peptide: Ac-LQTLR[S5]IQR[S5][Ala(cPr)][2Nal]-NH2
modifications: staple 6-10; not fully specified (residue 2); printed as LN(Me-Gln)TLRXIQRX(Cpa)(2-Nal)
B3: SEQ ID NO: 121 (peptide)
peptide: Ac-LQ[NMeT]LR[S5]IQR[S5][Cba][2Nal]-NH2
modifications: staple 6-10; not fully specified (residue 2); printed as L(N-methylQ)(N-methylT)LRXIQRX(CBA)(2-Nal)
B4: SEQ ID NO: 40 (peptide)
peptide: Ac-RE[S5]SLQ[S5]LR[S5]IQR[S5]L[2Nal][βAla][βAla]-NH2
modifications: staple 10-14, 3-7; not fully specified; printed as REXaa1SLQXaa2LRXaa3IQRXaa4L(2-Nal)(β-Ala)(β-Ala)
B5: SEQ ID NO: 120 (peptide)
peptide: HOCH2CH2CO-LQTLR[S5]IQR[S5][Cba][2Nal]-NH2
modifications: staple 6-10; not fully specified (residue 2); printed as L(N-methylQ)TLRXIQRX(CBA)(2-Nal)
B6: SEQ ID NO: 125 (peptide)
peptide: Ac-L[NMeQ]TLR[S5]IQ[NMeR′][S5][Cba][2Nal]-NH2
modifications: staple 6-10; not fully specified; printed as L(N-methylQ)TLRXIQ(N-methylR)X(CBA)(2-Nal)
B7: SEQ ID NO: 124 (peptide)
peptide: Ac-L[NMeQ]TL[NMeR′][S5]IQR[S5][Cba][2Nal]-NH2
modifications: staple 6-10; not fully specified; printed as L(N-methylQ)TL(N-methylR)XIQRX(CBA)(2-Nal)
B8: SEQ ID NO: 122 (peptide)
peptide: Ac-LQTLR[S5]IQR[S5][Cha][2Nal]-NH2
modifications: staple 6-10; not fully specified (residue 2); printed as L(N-methylQ)TLRXIQRX(Cha)(2-Nal)
B9: SEQ ID NO: 126 (peptide)
peptide: Ac-L[NMeQ]T[αMeL]R[S5]IQR[S5][Cba][2Nal]-NH2
modifications: staple 6-10; not fully specified; printed as L(N-methylQ)T(α-methylL)RXIQRX(CBA)(2-Nal)
B10: SEQ ID NO: 128 (peptide)
peptide: Ac-LQTL[NMeR′][S5]IQ[NMeR′][S5][Cba][2Nal]-NH2
modifications: staple 6-10; not fully specified (residue 2); printed as L(N-methylQ)TL(N-methylR)XIQ(N-methylR)X(CBA)(2-Nal)
B11: SEQ ID NO: 118 (peptide)
peptide: Ac-[NMeL]QTLR[S5]IQR[S5][Cba][2Nal]-NH2
modifications: staple 6-10; not fully specified (residue 2); printed as (Me-L)(N-MeQ)TLRXIQRX(CBA)(2-Nal)

Each binder was assayed against T1, β-catenin (assay: ALPHA Screen (BCL9/β-catenin);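 also: bead proximity readout with the polypeptide linked to donor beads and β-catenin fixed on acceptor beads, their binding bringing the beads close enough to emit signal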).
Description: In this assay, a polypeptide is conjugated to a donor bead and its target protein (i.e., β-catenin) is attached to an acceptor bead. When the two beads are in proximity due to the binding of the polypeptide to the target protein, a signal is generated and the binding affinity of the polypeptide can be quantitatively calculated. The assay may be conducted in the presence or absence of an unconjugated control polypeptide.

In order of rising IC50:
1. Ac-QLEHRERSL[S5]TLR[S5]IQR[Abu]L[2Nal][βAla][βAla]-NH2 (staple 10-14) [SEQ ID NO: 78]  0.09 µM
2. Ac-HR[S5′]RSL[S5′]TLR[S5′]IQR[S5′][Cba][2Nal]-NH2 (staple 11-15, 3-7) [SEQ ID NO: 94]  0.175 µM
3. Ac-LQTLR[S5]IQR[S5][Cba][2Nal]-NH2 (staple 6-10) [SEQ ID NO: 107]  0.316 µM
4. QLEHRERSLQTLR[Nle]IQR[Nle]L[2Nal] [SEQ ID NO: 66]  0.73 µM
5. HRERSLQTLR[Nle]IQR[Nle]L[2Nal] [SEQ ID NO: 62]  0.84 µM
6. H-HRE[S5′]SLQ[S5′]LR[S5′]IQR[S5′][Cba][2Nal]-OH (staple 11-15, 4-8) [SEQ ID NO: 82]  1.01 µM
7. QLEHRERSL[Nle]TLR[Nle]IQRML[2Nal] [SEQ ID NO: 67]  1.08 µM
8. HRERSLQTLRDIQRML[2Nal] [SEQ ID NO: 61]  1.38 µM
9. QLEHRERSLQTLRDIQRML[2Nal] [SEQ ID NO: 65]  1.64 µM
10. EHRERSLQTLR[Nle]IQR[Nle]L[2Nal] [SEQ ID NO: 64]  1.73 µM
11. Ac-RE[S5]SLQ[S5]LR[S5]IQR[S5]L[2Nal]-NH2 (staple 10-14, 3-7; not fully specified; printed as REXSLQXLRZIQRZL(2-Nal)) [SEQ ID NO: 39]  2.19 µM
12. B4  2.39 µM
13. RERSLQTLR[Nle]IQR[Nle]L[2Nal] [SEQ ID NO: 60]  2.42 µM
14. R[pentenylAla][Ala(cPr)][dNMeQ][pentenylAla][Ala(cPr)]R[pentenylAla]IQR[pentenylAla][Ala(cPr)][2Nal][βAla][βAla] (staple 8-12, 2-5) [SEQ ID NO: 89]  2.46 µM
15. EHRERSLQTLRDIQRML[2Nal] [SEQ ID NO: 63]  2.5 µM
16. LR[Nle]IQR[Nle]L[2Nal] [SEQ ID NO: 50]  2.54 µM
17. Ac-HRQ[S5′]SLQ[S5′]LR[S5′]IQR[S5′][Cba][2Nal]-NH2 (staple 11-15, 4-8) [SEQ ID NO: 87]  2.66 µM
18. B7  2.74 µM
19. Ac-LQTL[NMeR][S5]IQR[S5][Cba][2Nal]-NH2 (staple 6-10; not fully specified (residue 2)) [SEQ ID NO: 117]  4.23 µM
20. LQTLR[Nle]IQR[Nle]L[2Nal] [SEQ ID NO: 52]  4.7 µM
21. B3  5.01 µM
22. Ac-HRE[S5′]SLQ[S5′]LR[Nle]IQR[Nle]L[2Nal]-OH (staple 4-8) [SEQ ID NO: 80]  5.33 µM
23. B5  5.44 µM
24. LQTLRDIQRML[2Nal] [SEQ ID NO: 51]  5.78 µM
25. Ac-LQTLR[S5]IQA[S5]L[2Nal]AA-NH2 (staple 6-10; not fully specified; printed as LQTLRXIQAXL(2-Nal)AA) [SEQ ID NO: 27]  6.12 µM
26. B11  6.33 µM
27. B8  7.17 µM
28. B9  7.43 µM
29. Ac-LQTLR[S5]IQR[S5]L[2Nal][βAla][βAla]-NH2 (staple 6-10; not fully specified; printed as LQTLRXIQRXL(2-Nal)(β-Ala)(β-Ala)) [SEQ ID NO: 34]  9.62 µM
30. B1  10.1 µM
31. B6  10.6 µM
32. Ac-LQTLR[S5]IQR[S5]L[2Nal]P-NH2 (staple 6-10; not fully specified; printed as LQTLRXIQRXL(2-Nal)P) [SEQ ID NO: 33]  11.8 µM
33. Ac-LQTLR[S5]IQR[S5]L[2Nal]PD-NH2 (staple 6-10; not fully specified; printed as LQTLRXIQRXL(2-Nal)PD) [SEQ ID NO: 32]  12.2 µM
34. B2  15.8 µM
35. B10  29.5 µM
36. Ac-HRE[S5′]SLQ[S5′]LR[Nle]IQR[Nle][Cba][2Nal]-OH (staple 4-8) [SEQ ID NO: 81]  45.5 µM
37. Ac-HRE[S5′]SLQ[S5′]LR[S5′]IQQ[S5′][Cba][2Nal]-OH (staple 11-15, 4-8) [SEQ ID NO: 83]  50 µM

From patent US20200262867A1 (WNTRX PHARMACEUTICALS, published 2020)
